Biological target: recombinant human TNFα (human, UniProt P01375 77-233)
Assay: cell-based or functional assay

Chain of recombinant human TNFα (P01375 77-233 limits assumed): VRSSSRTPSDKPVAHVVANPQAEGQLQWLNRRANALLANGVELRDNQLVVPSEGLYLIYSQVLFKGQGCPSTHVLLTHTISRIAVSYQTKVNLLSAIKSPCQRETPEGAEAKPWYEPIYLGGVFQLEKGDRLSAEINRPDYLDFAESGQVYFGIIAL

neutralizing TNFα bioactivity: 4 fold
B1: TNV196 (antibody, V domains shown)
VH: QVQLVESGGGVVQPGRSLRLSCAASGFTFSSYAMHWVRQAPGKGLEWVAFISYDGSNKKSADSVKGRFTVSRDNSKNTLFLQMNSLRAEDTAVFYCARDRGIGAGGNYYYYGMDVWGQGTTVTVSS
VL: EIVLTQSPATLSLSPGERATLSCRASQSVYSYLAWYQQKPGQAPRLLIYDASNRATGIPARFSGSGSGTDFTLTISSLEPEDFAVYYCQQRSNWPPFTFGPGTKVDIK

— patent publication US20090081234A1 (published 2009)
